Source: patent US20250215100A1 (HARBOUR BIOMED SHANGHAI, published 2025)

B1: PR006239 (antibody, human IgG1, kappa)
heavy: QVQLVQSGAEVKKPGASVKVSCKASGYTFAGYYMYWVRQAPGQGLEWMGWINPDSGAPTYAQKFQGRVTMTRDTSISTAYMELSRLRSDDTAVYYCAREKIYYGSGNYYPSFDYWGQGTLVTVSSASTKGPSVFPLAPSSKSTSGGTAALGCLVKDYFPEPVTVSWNSGALTSGVHTFPAVLQSSGLYSLSSVVTVPSSSLGTQTYICNVNHKPSNTKVDKKVEPKSCDKTHTCPPCPAPEAAGAPSVFLFPPKPKDTLMISRTPEVTCVVVDVSHEDPEVKFNWYVDGVEVHNAKTKPREEQYNSTYRVVSVLTVLHQDWLNGKEYKCKVSNKALPAPIEKTISKAKGQPREPQVYTLPPSREEMTKNQVSLTCLVKGFYPSDIAVEWESNGQPENNYKTTPPVLDSDGSFFLYSKLTVDKSRWQQGNVFSCSVMHEALHNHYTQKSLSLSPGK
light: DIQLTQSPSFLSASVGDRVTITCRASQGISSYLAWYQQKPGKAPKLLIYAASTLQSGVPSRFSGSGSGTEFTLTISSLQPEDFATYYCQQLNSYPWTFGQGTKVEIKRTVAAPSVFIFPPSDEQLKSGTASVVCLLNNFYPREAKVQWKVDNALQSGNSQESVTEQDSKDSTYSLSSTLTLSKADYEKHKVYACEVTHQGLSSPVTKSFNRGEC
notes: Variable regions of PR003379 on human IgG1 with L234A, L235A, G237A; no mutation in the variable region
B2: PR006514 (antibody, human IgG1, kappa, V domains shown)
VH: QVQLVQSGAEVKKPGASVKVSCKASGYTFAGYYMYWVRQAPGQGLEWMGWINPDSGAPTYAQKFQGRVTMTRDTSISTAYMELSRLRSDDTAVYYCAREKIYYGSGNYYPSFDYWGQGTLVTVSS
VL: DIQLTQSPSFLSASVGDRVTITCRASQGISSYLAWYQQKPGKAPKLLIYAASTLQSGVPSRFSGSGSGTEFTLTISSLQPEDFATYYCQQLNVYPWTFGQGTKVEIKR
notes: PR003379 variant L:S93V; human IgG1 L234A, L235A, G237A
B3: PR006498 (antibody, human IgG1, kappa, V domains shown)
VH: QVQLVQSGAEVKKPGASVKVSCKASGYTFAGYYMYWVRQAPGQGLEWMGWINPDSGAPTYAQKFQGRVTMTRDTSISTAYMELSRLRSDDTAVYYCAREKIYYGSGNYYPSFDYWGQGTLVTVSS
VL: DIQLTQSPSFLSASVGDRVTITCRASQGISSYLAWYQQKPGKAPKLLIYAASTLQSGVPSRFSGSGSGTEFTLTISSLQPEDFATYYCQQLISYPWTFGQGTKVEIKR
notes: PR003379 variant L:N92I; human IgG1 L234A, L235A, G237A
B4: PR006495 (antibody, human IgG1, kappa, V domains shown)
VH: QVQLVQSGAEVKKPGASVKVSCKASGYTFAGYYMYWVRQAPGQGLEWMGWINPDSGAPTYAQKFQGRVTMTRDTSISTAYMELSRLRSDDTAVYYCAREKIYYGSGNYYPSFDYWGQGTLVTVSS
VL: DIQLTQSPSFLSASVGDRVTITCRASQGISSYLAWYQQKPGKAPKLLIYAASTLQSGVPSRFSGSGSGTEFTLTISSLQPEDFATYYCQQLASYPWTFGQGTKVEIKR
notes: PR003379 variant L:N92A; human IgG1 L234A, L235A, G237A
B5: PR006496 (antibody, human IgG1, kappa, V domains shown)
VH: QVQLVQSGAEVKKPGASVKVSCKASGYTFAGYYMYWVRQAPGQGLEWMGWINPDSGAPTYAQKFQGRVTMTRDTSISTAYMELSRLRSDDTAVYYCAREKIYYGSGNYYPSFDYWGQGTLVTVSS
VL: DIQLTQSPSFLSASVGDRVTITCRASQGISSYLAWYQQKPGKAPKLLIYAASTLQSGVPSRFSGSGSGTEFTLTISSLQPEDFATYYCQQLFSYPWTFGQGTKVEIKR
notes: PR003379 variant L:N92F; human IgG1 L234A, L235A, G237A
B6: PR006497 (antibody, human IgG1, kappa, V domains shown)
VH: QVQLVQSGAEVKKPGASVKVSCKASGYTFAGYYMYWVRQAPGQGLEWMGWINPDSGAPTYAQKFQGRVTMTRDTSISTAYMELSRLRSDDTAVYYCAREKIYYGSGNYYPSFDYWGQGTLVTVSS
VL: DIQLTQSPSFLSASVGDRVTITCRASQGISSYLAWYQQKPGKAPKLLIYAASTLQSGVPSRFSGSGSGTEFTLTISSLQPEDFATYYCQQLYSYPWTFGQGTKVEIKR
notes: PR003379 variant L:N92Y; human IgG1 L234A, L235A, G237A
B7: PR006516 (antibody, human IgG1, kappa, V domains shown)
VH: QVQLVQSGAEVKKPGASVKVSCKASGYTFAGYYMYWVRQAPGQGLEWMGWINPDSGAPTYAQKFQGRVTMTRDTSISTAYMELSRLRSDDTAVYYCAREKIYYGSGNYYPSFDYWGQGTLVTVSS
VL: DIQLTQSPSFLSASVGDRVTITCRASQGISSYLAWYQQKPGKAPKLLIYAASTLQSGVPSRFSGSGSGTEFTLTISSLQPEDFATYYCQQLNHYPWTFGQGTKVEIKR
notes: PR003379 variant L:S93H; human IgG1 L234A, L235A, G237A

How the values were obtained:
[1] = target: T1, human CD40 on cells (human, UniProt P25942 21-277); test: FACS, Raji cells
T1 construct: whole, on cells; The cell line used is named in each row's assay; also called hCD40; TNFRSF5
T1 sequence (P25942 21-277): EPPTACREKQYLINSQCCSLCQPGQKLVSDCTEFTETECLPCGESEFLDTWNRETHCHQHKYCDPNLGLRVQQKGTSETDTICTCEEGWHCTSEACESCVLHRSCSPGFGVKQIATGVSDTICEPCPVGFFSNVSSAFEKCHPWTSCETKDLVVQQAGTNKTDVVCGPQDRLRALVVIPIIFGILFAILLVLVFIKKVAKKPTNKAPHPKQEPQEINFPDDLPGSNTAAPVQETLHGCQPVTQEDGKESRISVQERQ
Excerpt: (§1) Flow cytometry (FACS) was used to detect the binding ability of the CD40 antibody to cells, such as, CHO-K1/hCD40 highly expressing human CD40 (constructed by Beijing Kyinno Biotechnology), CHO-K1/cyCD40 highly expressing cynomolgus monkey CD40 (constructed by Beijing Kyinno Biotechnology) and lymphoma cell highly expressing human CD40, Raji (ATCC, #CCL-86). Specifically, the cells were digested and resuspended with complete medium (F-12K for CHO-K1 cells; and RPMI-1640 for Raji cells); and the cells were adjusted to a cell density of 1×10⁶ cells/mL. The cells were seeded in a 96-well V-bottom plate (Corning, #3894) at 100 μL/well, and the antigen binding protein to be tested at 2x final concentration was then added at 100 μL/well and mixed evenly, with the highest final concentration of the antigen binding protein of 300 nM, a total of 8 concentrations, and 5-fold concentration gradient dilution. hIgG (Crownbio, #C0002) was used as a negative control, and the positive control molecule was the molecule in Table 1-5. The cells were incubated at 4° C. for 1 hours in the dark. After the incubation, the cells were rinsed twice by adding pre-chilled PBS at 100 μL/well, and centrifuged at 500 g at 4° C. for 5 minutes, and the supernatant was discarded. Then, a fluorescent secondary antibody (goat anti-human IgG (H+L) secondary antibody, Alexa Fluor® 488 conjugate, Invitrogen, #A11013, 1:1000 dilution) was added at 100 µL/well, and the cells were incubated at 4° C. for 30 minutes in the dark. The cells were washed twice with pre-chilled PBS at 200 μL/well, and centrifuged at 500 g at 4° C. for 5 minutes, and the supernatant was discarded. Finally, the cells were resuspended in pre-chilled PBS at 200 μL/well. The fluorescence signal values were read using a BD FACS CANTOII flow cytometer or ACEA NovoCyte flow cytometer, and the data were processed and analyzed using FlowJo v10 software (FlowJo, LLC).
(§2) Data processing and graphical analysis were performed using GraphPad Prism 8 software. The binding curve of the antibody to the target cell and parameters, such as EC50 value were obtained by four-parameter nonlinear fitting.

[2] = target: T1, human CD40 on cells; test: cell-based or functional assay
[3] = target: T2, cynomolgus monkey CD40 on cells (cynomolgus monkey, UniProt G7PG38 21-278); test: FACS, CHO-K1/cyCD40 cells
T2 construct: also called cyCD40; CHO-K1/cyCD40
T2 sequence (G7PG38 entry or part of it limits assumed): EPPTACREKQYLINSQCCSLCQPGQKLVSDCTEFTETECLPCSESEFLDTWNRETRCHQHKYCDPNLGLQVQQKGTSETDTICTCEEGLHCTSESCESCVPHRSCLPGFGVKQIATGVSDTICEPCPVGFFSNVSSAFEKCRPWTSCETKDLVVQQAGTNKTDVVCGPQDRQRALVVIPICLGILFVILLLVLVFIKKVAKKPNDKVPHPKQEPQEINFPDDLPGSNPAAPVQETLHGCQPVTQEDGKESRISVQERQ
Excerpt: as §1, §2

[4] = target: T1, human CD40 on cells; test: FACS, CHO-K1/hCD40 cells
Excerpt: as §1, §2

Binder | EC50 [1] [nM] | Maximum MFI [1] [MFI] | EC50 (nM), crosslinked, HEK293-hCD40-NFkB reporter [2] [nM] | EC50 (nM), uncrosslinked, HEK293-hCD40-NFkB reporter [2] [nM] | Fold (EC50 in the absence of crosslinking/EC50 in the presence of crosslinking) [2] [fold] | Maximum fold (fold), crosslinked [2] [fold] | Maximum fold (fold), uncrosslinked [2] [fold] | EC50 [3] [nM] | Maximum MFI [3] [MFI] | EC50 [4] [nM] | Maximum MFI [4] [MFI]
B1 | 0.332 | 9050 | 0.098 | 0.173 | 1.77 | 5.76 | 4.58 | 4.41 | 51800 | 6.67 | 88600
B2 | 0.455 | 12000 |  |  |  |  |  | 4.23 | 45100 | 5.08 | 86900
B3 | 0.344 | 8980 | 0.196 | 0.462 | 2.36 | 5.53 | 4.4 | 4.04 | 47300 | 4.97 | 77700
B4 | 0.356 | 8870 | 0.109 | 0.905 | 8.28 | 5.54 | 4.92 | 4.41 | 48000 | 4.9 | 79400
B5 | 0.277 | 9300 | 0.217 | 0.43 | 1.98 | 5.03 | 4.43 | 3.5 | 49700 | 4.8 | 88200
B6 | 0.252 | 9200 | 0.158 | 0.479 | 3.03 | 4.77 | 4.61 | 3.54 | 51700 | 5.09 | 92300
B7 | 0.351 | 8900 |  |  |  |  |  | 5.29 | 51400 | 5.08 | 86100
